Experimental data published in paper PMC8659020, “Ferrocene-Labelled Electroactive Aptamer-Based Sensors (Aptasensors) for Glycated Haemoglobin”.

Target: Haemoglobin (Hb) (UniProt P69905;P68871 2-142;2-147)
Assay: differential pulse voltammetry (electrochemical aptasensor); aptamer immobilized on electrode; DPV in 10 mM Tris-HCl (stated for clinical-range test; pH and temperature not given); EIS in 5 mM [Fe(CN)6]3-/4-, 0.1 M KCl; aptamer loaded in 5 mM MgCl2, 10 mM Tris-HCl, electrodes rinsed with 0.1 M PBS pH 6.5, 1 mM MgCl2
Conditions: protein: commercial; chain copies: 2;2; label: 5' ferrocene; single strand, Mfold-predicted secondary structure

Chain of Haemoglobin (Hb) (P69905 2-142, chain 1 of 2): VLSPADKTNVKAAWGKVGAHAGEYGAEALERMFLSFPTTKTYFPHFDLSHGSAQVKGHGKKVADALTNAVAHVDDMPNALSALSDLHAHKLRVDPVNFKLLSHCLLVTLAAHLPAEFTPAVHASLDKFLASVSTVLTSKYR
Chain of Haemoglobin (Hb) (P68871 2-147, chain 2 of 2): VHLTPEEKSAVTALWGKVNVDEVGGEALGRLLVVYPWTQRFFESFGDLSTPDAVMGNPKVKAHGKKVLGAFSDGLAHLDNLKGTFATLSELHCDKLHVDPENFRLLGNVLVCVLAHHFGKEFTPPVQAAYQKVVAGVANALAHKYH

B1: Hb aptamer (II) (ssDNA)
DNA: ACGCACACCAGAGACAAGTAGCCCCCCAAACGCGGCCACGGAACGCAGCACCTCCATGGC
modifications: 5' ferrocene; 3' thiol (SH), immobilized on gold screen-printed electrode
Kd: 95.9 ± 40 µg/mL
